For orientation: stoichiometry N means a count of units in the complex or per binding partner.

One test concerns the target EYFP-ELKS1(771–976). As to the kind of experiment: FRET or BRET. A general note: In BRET a luciferase serves as donor, and the signal depends on an acceptor being close.
A further test concerns the target GST-ELKS1(771–976). As to the kind of experiment: pull-down. The settings on record: scale: GST-ELKS1(771–976) per MBP-bMunc13-2(1–305).

In the test with EYFP-ELKS1(771–976), “ECFP-bMunc13-2(70–204) (domain or fragment)” came in with a fold of the FRET value of cells coexpressing soluble ECFP and EYFP of 7 fold; a normalized FRET value of 0.07.

In the test with GST-ELKS1(771–976), “MBP-bMunc13-2(1–305) (domain or fragment)” returned a stoichiometry N of 1.69.

The values above are taken from PMC5379939.
